Patent US20170088603A1

Target: Human FcRn with human β2M on MDCK II clone 15 cells (human) (UniProt P55899)
Experiment: not given

Sequence of Human FcRn with human β2M on MDCK II clone 15 cells (human) (P55899 24-365, chain 1 of 2): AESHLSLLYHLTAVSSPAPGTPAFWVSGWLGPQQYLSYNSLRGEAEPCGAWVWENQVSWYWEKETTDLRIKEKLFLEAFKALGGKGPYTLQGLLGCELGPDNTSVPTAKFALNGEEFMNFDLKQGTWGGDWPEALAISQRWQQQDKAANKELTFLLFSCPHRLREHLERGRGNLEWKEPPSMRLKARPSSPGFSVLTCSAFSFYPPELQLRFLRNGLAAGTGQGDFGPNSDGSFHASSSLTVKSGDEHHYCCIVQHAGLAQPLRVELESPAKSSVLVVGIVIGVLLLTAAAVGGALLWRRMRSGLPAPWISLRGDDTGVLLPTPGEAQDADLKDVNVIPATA
Sequence of Human FcRn with human β2M on MDCK II clone 15 cells (human) (P61769 21-119, chain 2 of 2, further chain): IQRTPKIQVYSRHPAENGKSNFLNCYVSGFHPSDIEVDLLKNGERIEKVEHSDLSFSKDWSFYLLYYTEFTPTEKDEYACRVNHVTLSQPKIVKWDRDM
Sequence of IgG4 Fc IgM tp L309 (P01861 other isoform, or with tags, fused parts or gaps limits assumed): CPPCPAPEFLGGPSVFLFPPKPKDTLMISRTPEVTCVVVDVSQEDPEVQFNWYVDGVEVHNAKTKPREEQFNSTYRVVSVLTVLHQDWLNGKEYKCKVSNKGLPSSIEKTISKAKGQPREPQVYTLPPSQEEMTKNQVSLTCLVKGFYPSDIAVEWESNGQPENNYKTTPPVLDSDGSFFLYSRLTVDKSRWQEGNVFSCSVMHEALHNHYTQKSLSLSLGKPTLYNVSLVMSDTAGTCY

Row | Substance | EC50, inhibition of FcRn mediated IgG recycling (cell lysates), percentage inhibition relative to the positive control; blocked ligand biotinylated human IgG [upper panel (cell lysates] [µg/mL]
1 | IgG1 Fc IgM tp L309 (from UniProt P0DOX5 228-449) (Fc fusion) | 0.37

Target: Human FcRn with human β2M on MDCK II clone 15 cells (human) (UniProt P55899)
Experiment: cell-based or functional assay

Row | Substance | Blockade of IgG intracellular uptake EC50 [µg/mL] | Blockade of IgG recycling EC50 [µg/mL] | Blockade of IgG recycling (% inhibition at 100 µg/ml)
2 | IgG1 Fc IgM tp L309 (from UniProt P0DOX5 228-449) (Fc fusion) | 4.4 | 0.33 | –
3 | IgG1 IgM tail-piece, H310L (Fc fusion) | – | – | 45
4 | IgG1 IgM tail-piece, T307A (Fc fusion) | 0.54 | 0.35 | –
5 | IgG1 IgM tail-piece, V308F (Fc fusion) | 0.12 | 0.073 | –
6 | IgG1 IgM tail-piece, V308P (Fc fusion) | 0.34 | 0.55 | –
7 | IgG4 Fc IgM tp L309 (from UniProt P01861 106-325) (Fc fusion) | 5.9 | 1 | –
8 | IgG4 IgM tail-piece, T307A (Fc fusion) | 0.5 | – | –
9 | IgG4 IgM tail-piece, V308F (Fc fusion) | 0.42 | 0.56 | –
10 | IgG4 IgM tail-piece, V308P (Fc fusion) | 0.51 | 0.42 | –
